Data as given in patent US20110033498.

Legend:
pro-SUMO-1 = pro-SUMO-1 (UniProt P63165)
poly-SUMO-2 chains (2-8) = poly-SUMO-2 chains (2-8) (UniProt P61956)
poly-SUMO-2 chains (2-8), sequence (P61956 1-93): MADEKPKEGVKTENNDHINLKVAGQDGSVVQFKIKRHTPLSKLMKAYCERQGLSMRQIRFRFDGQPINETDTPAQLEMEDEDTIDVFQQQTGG

pro-SUMO-1, sequence (P63165 whole entry): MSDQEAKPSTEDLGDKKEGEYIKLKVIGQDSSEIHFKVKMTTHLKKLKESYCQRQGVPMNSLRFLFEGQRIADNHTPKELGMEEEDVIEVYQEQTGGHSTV

His6-SENP2CD (catalytic domain of SENP2)
in vitro processing of pro-SUMO-1, Coomassie staining (pro-SUMO-1): could hydrolyze SUMO chains to monomers (FIG. 12D, lane 10) and process pro-SUMO-1 | in vitro hydrolysis of poly-SUMO-2 chains, Coomassie staining (poly-SUMO-2 chains (2-8)): the catalytic domain of SENP2 (SENP2CD), a SUMO-specific protease, could hydrolyze SUMO chains to monomers | in vitro hydrolysis of poly-SUMO-2 chains, SDS-PAGE and Coomassie staining (poly-SUMO-2 chains (2-8)): SENP2 reduced the chains to monomers | in vitro hydrolysis of poly-SUMO-3 chains, Coomassie staining (poly-SUMO-3 chains (2-8)): the catalytic domain of SENP2 (SENP2CD), a SUMO-specific protease, could hydrolyze SUMO chains to monomers | in vitro hydrolysis of poly-SUMO-3 chains, anti-SUMO-3 Western blot (poly-SUMO-3 chains (2-8)): An identical result was obtained when poly-SUMO-3(2-8) chains were tested
